Experimental data reported in article PMC11237755.

Target: T1, TtdV-His6;TtdW-His6 (Salmonella enterica serovar Typhimurium IR715 (ATCC14028 NalR);Salmonella enterica serovar Typhimurium IR715 (ATCC14028 NalR)) (UniProt Q8ZLP8+Q8ZLP7)
T1 sequence 1: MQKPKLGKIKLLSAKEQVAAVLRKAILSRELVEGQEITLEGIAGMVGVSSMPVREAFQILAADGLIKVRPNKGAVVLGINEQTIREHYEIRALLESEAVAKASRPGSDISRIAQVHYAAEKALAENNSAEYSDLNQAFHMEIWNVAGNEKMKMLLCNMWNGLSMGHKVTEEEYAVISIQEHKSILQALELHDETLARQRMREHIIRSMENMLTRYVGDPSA
T1 sequence 2: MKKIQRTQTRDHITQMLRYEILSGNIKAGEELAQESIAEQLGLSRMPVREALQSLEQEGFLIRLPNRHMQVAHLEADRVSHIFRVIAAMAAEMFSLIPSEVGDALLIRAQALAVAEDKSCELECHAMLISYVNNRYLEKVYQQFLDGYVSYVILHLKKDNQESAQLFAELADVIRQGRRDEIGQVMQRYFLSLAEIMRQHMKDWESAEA
Assay: EMSA
Conditions: LightShift Chemiluminescent EMSA kit (binding buffer, salt and pH not given), 20 min room temperature; 20 fmol probe, 6% 0.5x TBE gel (TtdV/TtdW); 50 fmol …

With “CGTATGCTGACCCGCTATGTTGGTGACCCTTCTGCCTGATCTTTTCGCCTGCGTGAGCATCGCAGGCGCTTCAACCAATTCTTCAATTCTATTAATCACGTCCAGTAACGATCTAACCACGATCTTGATGTAGATCCCACTCCTGCATCTTTCCTGAGAAACGATTTGACTTAGTTTTTGTATGGGAATAATTTCTCCCTGTCAACATTGGATACAATATCATATATCATTGATTGGATAATTATAAATATGGAACCCATTACCCTTACCTTATGTTTATTGGTGTTCGCCC (double strand) [Probe 4]” the binding was “binds”.
